Test results reported in US20230071609A1 (Genentech, published 2023).
One block for each binder: values may come before it.

How the values were obtained:
APOL6-myc-FLAG = biological target: T1, APOL6-myc-FLAG (human, UniProt Q9BWW8 1-343); assay: immunofluorescence on transfected COS cells; grade
T1 construct: whole, on cells; In fixed, permeabilized transfected COS cells; untagged APOL6 in the western blots; not shown: C-terminal myc-FLAG tag
T1 sequence (looked up): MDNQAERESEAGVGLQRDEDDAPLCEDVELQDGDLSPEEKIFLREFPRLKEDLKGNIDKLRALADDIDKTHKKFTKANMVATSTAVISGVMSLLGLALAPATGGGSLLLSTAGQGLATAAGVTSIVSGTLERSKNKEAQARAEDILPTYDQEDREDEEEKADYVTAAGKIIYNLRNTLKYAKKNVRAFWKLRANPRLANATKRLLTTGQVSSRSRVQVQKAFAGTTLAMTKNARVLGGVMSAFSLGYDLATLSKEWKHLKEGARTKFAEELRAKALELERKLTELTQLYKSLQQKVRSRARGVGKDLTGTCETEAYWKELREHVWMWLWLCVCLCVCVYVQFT
Excerpt: COS cells were transfected as in FIG. 31A except APOL1 and APOL2 were also C-terminally myc-FLAG tagged. Overlays of APOL with epitope tags: either mouse anti-FLAG-M2 or mouse anti-myc 9E10 for anti-APOL1 rabmabs; or rabbit anti-Myc 71D10 in conjunction with mouse anti-APOL1. Signals indicate the two antibodies overlap (i.e. anti-APOL1 cross-reacts with that APOL); signals (epitope tag only) indicate no cross-reactivity. Alexa647 anti-rabbit or mouse were used for the tags to rule out the possibility that any colocalization was a bleed-through artifact. Sparsely transfected areas were imaged to permit evaluation of background staining in adjacent untransfected cells—DAPI nuclear staining identifies both untransfected and transfected cell nuclei. […] Note that none of the antibodies cross-reacted with the more distantly related APOL6. *, APOL2-myc-FLAG is presumably misfolded, since it is not as cross-reactive as untagged APOL2 (compare FIG. 31A) with several antibodies. Commercial antibodies are Sigma HPA018885, Epitomics EPR2907 (2) (Epito) and Proteintech 11486-2-AP (Ptech).
Cells were plated on LabTekII (Nalge Nunc 154534) slides and fixed at 70-100% confluency. For mAb screening, cells were fixed/permeabilized for 5 min in −20° C. methanol (EMD MX0485-6). For all other experiments, cells were fixed in 3% paraformaldehyde in PBS (EMS 15710) for 20 mins at room temperature, quenched with 50 mM NH₄Cl in PBS for 10 mins, then permeabilized with 0.1% TX-100 in PBS for 4 mins or for 1h in saponin buffer [0.4% saponin (Sigma S7900), 1% bovine serum albumin (BSA; Sigma A2153), 2% fetal bovine serum (Seradigm) in PBS]. First antibodies (stored sterile at 4° C.) were applied for 1 h at room temperature, at 1 μg/ml for screening on transfected cells or at subsequently optimized concentrations for detecting endogenous APOL1. After 3×10 min washes in PBS (for Methanol or TX-100 protocols) or saponin buffer (saponin protocol), secondary antibodies were applied at 1.88 μg/ml for 1 h at room temperature, washed 3× and mounted under No. 1.5 coverslips in ProLong Gold with DAPI (4′,6-diamidino-2-phenylindole; Life Technologies P36931).

[1] = biological target: T2, untagged APOL1-G0, KIK variant, transiently expressed (COS cells) (human, UniProt O14791 29-398); assay: immunofluorescence on transfected COS cells, 1 µg/ml; grade
T2 construct: Origene SC109941 clone with E150K, M228I, R255K
T2 chain: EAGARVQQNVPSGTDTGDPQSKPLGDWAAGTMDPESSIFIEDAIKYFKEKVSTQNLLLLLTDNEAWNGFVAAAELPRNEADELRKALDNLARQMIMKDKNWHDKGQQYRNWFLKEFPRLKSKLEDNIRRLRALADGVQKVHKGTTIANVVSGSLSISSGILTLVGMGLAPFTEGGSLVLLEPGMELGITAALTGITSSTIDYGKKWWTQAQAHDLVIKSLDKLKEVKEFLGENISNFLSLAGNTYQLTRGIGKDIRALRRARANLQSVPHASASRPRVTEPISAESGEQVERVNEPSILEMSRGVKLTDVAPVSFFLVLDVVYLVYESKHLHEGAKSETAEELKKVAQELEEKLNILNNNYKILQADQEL

[2] = biological target: T3, circulating APOL1 in normal human serum (human, UniProt O14791 28-398); assay: cell-based or functional assay
T3 sequence (looked up): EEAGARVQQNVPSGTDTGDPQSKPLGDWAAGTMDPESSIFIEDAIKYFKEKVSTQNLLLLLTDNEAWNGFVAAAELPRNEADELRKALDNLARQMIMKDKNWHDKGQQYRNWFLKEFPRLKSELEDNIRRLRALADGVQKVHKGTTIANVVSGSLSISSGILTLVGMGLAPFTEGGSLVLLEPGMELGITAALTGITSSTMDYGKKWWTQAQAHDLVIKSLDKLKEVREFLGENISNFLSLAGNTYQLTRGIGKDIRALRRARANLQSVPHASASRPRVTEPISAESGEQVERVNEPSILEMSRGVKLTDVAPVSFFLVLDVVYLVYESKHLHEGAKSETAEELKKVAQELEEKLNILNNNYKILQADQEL

[3] = biological target: T4, endogenous human APOL1 (wild-type immortalized podocytes; also JHH-1 cells, kidney and liver tissue) (human, UniProt O14791 28-398); assay: summary of the Examples: podocyte flow cytometry
T4 construct: whole, on cells; Cell or tissue and permeabilization are told under assay; also called podocyte APOL1; endogenous APOL1
T4 sequence (looked up): T3 sequence (looked up)
Description: Cells were harvested with 5 mM EDTA in PBS, washed once with growth media and twice with PBS. Approximately 0.5×10⁶/m1 of cells resuspended in PBS were incubated with anti-APOL1 antibodies for 1 h on ice. Following two PBS washes, 2 μg/ml of Alexa488 anti-mouse or anti-rabbit (Invitrogen A11029 and A21206, respectively) was used for 1 h on ice for detection. Cells were washed twice in PBS and resuspended in PBS with 1 μg/ml propidium iodide. Signals were read in a FACSCalibur3 (Becton Dickinson), with the exception of FIG. 8A and FIG. 14, which used a FACSCelesta, and data was analyzed using FlowJo v8.4.5. Mean fluorescence intensities were plotted in PRISM v7 after subtraction of secondary antibody alone background. For low pH experiments, cells were incubated with the antibodies in the presence of PBS pH 7.0 or PBS pH 5.5 for an hour on ice and detected with secondary antibodies at neutral pH.

[4] = biological target: T3, circulating APOL1 in normal human serum; assay: summary of the Examples: trypanolysis blocking as proxy for serum APOL1
Description: The trypanolysis assay used herein to text specificity of antibodies for serum APOL1 is as follows. Trypanosoma brucei brucei were obtained from ATCC and cultured in HMI-9 media containing IMDM (Genentech), heat-inactivated (56° C. for 30 min) FBS (Seradigm IXL9/06807/GEN), 1% serum plus (Sigma 14008C), HMI-9 (Genentech) and 1% hypoxanthine (Genentech). Trypanosome lysis was performed by treating 1×10⁵ Trypanosomes with serial dilutions of NHS or recombinant APOL1 for 16 h in a total of 100 μl. Live cell read out was done by the Alamar Blue assay as per the manufacturer's protocol, (Thermo Fisher, DAL1100). Briefly 10 μl of Alamar Blue was added to each well, incubated at 37° C. for 4 h. Red fluorescence, indicating live trypanosomes, was measured on a SpectraMax® fluorimeter powered by SoftMAX® PRO with excitation at 530 nm and emission 590 nm. For the antibody blocking assay, 1% normal human serum was preincubated with 1-10 μg/ml of anti-APOL1 antibody or media at room temperature for 20 minutes followed by addition of trypanosomes. After 16 h, the Alamar Blue assay was performed as above and background values for media only were subtracted and % blocking calculated by normalizing to no antibody control.
Trypanosoma brucei brucei were obtained under MTA from ATCC and cultured in HMI-9 media containing IMDM (Genentech), heat-inactivated (56° C. for 30 min) FBS (Seradigm IXL9/06807/GEN), 1% serum plus (Sigma 14008C), HMI-9 (Genentech) and 1% hypoxanthine (Genentech). Trypanosome lysis was performed by treating 1×10⁵ Trypanosomes with serial dilutions of NHS or recombinant APOL1 for 16 h in a total of 100 μl. Live cell read out was done by the Alamar Blue assay as per the manufacturer's protocol (30) (Thermo Fisher, DAL1100). Briefly 10 μl of Alamar Blue was added to each well, incubated at 37° C. for 4 h. Red fluorescence, indicating live trypanosomes, was measured on a SpectraMax fluorimeter powered by SoftMAX PRO with excitation at 530 nm and emission 590 nm. For the antibody blocking assay, 1% normal human serum was preincubated with 1-10 μg/ml of anti-APOL1 antibody or media at room temperature for 20 mins followed by addition of trypanosomes.

B1: antibody 3.1C7 (antibody)
heavy: EVQLQQSGTVLSRPGASVKMSCKASGYTMTSYWMHWIKQRPGQGLEWIGAIYPGKSDIKYNQKFKDKAKLTAVTATSTAYMEINSLTNEDSAVYYCTNSIPFVYWGQGTLITVSAASTKGPSVYPLAPVCGDTTGSSVTLGCLVKGYFPEPVTLTWNSGSLSSGVHTFPAVLQSDLYTLSSSVTVTSSTWPSQSITCNVAHPASSTKVDKKIEPRGPTIKPCPPCKCPAPNAAGGPSVFIFPPKIKDVLMISLSPIVTCVVVDVSEDDPDVQISWFVNNVEVHTAQTQTHREDYNSTLRVVSALPIQHQDWMSGKEFKCKVNNKDLGAPIERTISKPKGSVRAPQVYVLPPPEEEMTKKQVTLTCMVTDFMPEDIYVEWTNNGKTELNYKNTEPVLDSDGSYFMYSKLRVEKKNWVERNSYSCSVVHEGLHNHHTTKSFSRTPGK
light: DIVMTQSPSSLTVTAGEKVTMSCKSSQSLLNSENQKKYLTWFQQKPGQPPKLLIYWTSTRYSGIPDRFTGSGSGTVFTLTISSVQADDLAVYYCQNDYSYPLTFGGGTKLEIKRADAAPTVSIFPPSSEQLTSGGASVVCFLNNFYPKDINVKWKIDGSERQNGVLNSWTDQDSKDSTYSMSSTLTLTKDEYERHNSYTCEATHKTSTSPIVKSFNRNEC
notes: Mouse mAb, cloned as murine IgG2a LALAPG; also called SRA-ID antibody 3.1C7
binding result (APOL6-myc-FLAG): no binding (tested: 1 µg/ml) | binding result [1]: binds | IC50 of blocking of serum APOL1-mediated trypanolysis (Alamar Blue) [2]: 1 nM

B3: antibody 3.4G10 (antibody, V domains shown)
VH: DVQLQESGPDLVKPSQSLSLTCTVTGYSITSGESWHWIRHFPGNELEWMGFIHYSGSANYNPSLKSRISITRDTSKNQFFLQLLSVTTDDTATYYCARSVYNYDGAWFPYWGQGTLVTVSA
VL: QIVLTQSPVIMSASPGERVTLTCSASSSVSSSYLNWYQLKPGSSPKVWIYRTSNLASGVPARFSGSGSGTSYSLTISSMEAEDAASYFCHQWSAYPPTFGGGTKLEIKR
notes: Mouse mAb, cloned as murine IgG2a LALAPG
binding result [3]: binds | binding result [4]: binds

B5: antibody 3.2C11 (antibody, V domains shown)
VH: QVQLQQSGAELVRPGASVKLSCKALGYTFTDYEIHWVKQTPVHGLEWIGGIHPGNGGTAYNPKFKGKATLTADTSSSTASMELSSLTSEDSAVYYCTDWVDYWGQGTTLTVSS
VL: DVVVTQTPLSLPVNFGDQVSISCRSSQSLVNRHGITYLSWYLHKPGQSPQLLIYEISNRFSGVPDRFSGSGSGTDFTLKISTIKPEDLGMYYCFQGTHQPFTFGGGTKLEIKR
notes: as for B3
binding result [4]: binds

Next, values leading:

binding result (APOL6-myc-FLAG): no binding (tested: 1 µg/ml)
B2: rabbit monoclonal antibody 5.17H8 (antibody, V domains shown)
VH: QSLEESGGRLVTPGTPLTLTCTVSGIDLSSYAMGWVRQAPGKGLEWIGIISSSGSTHYASWAKGRFTISKTSTTVDLKITSPTTEDTATYFCARARAGSTYYTGYYFNLWGQGTLVTVSS
VL: AIEMTQTASPVSAAVGGTVTINCQASESIYSNLAWYQQKPGQRPKLLIYGASTLESGVPSRFKGSGSGTEYTLTISDLECDDAATYYCQSGYYGISAINNAFGGGTEVVVKG
notes: Rabbit mAb (Method #5), recombinant; also called rabmab 5.17H8

binding result (APOL6-myc-FLAG): no binding (tested: 1 µg/ml) | binding result [1]: binds
B4: antibody 4.2C4 (antibody, V domains shown)
VH: QVQLQQSGPELVKPGASVKMSCKASGYTFTDYVISWVKQRTGQGLEWIGEMFPGSGTTYYTEKFRGKATLTADKSSNTAYMQLSSLTSEDSAVYFCARGTTADYWGQGTTLTVSS
VL: ENVLTQSPAIMSASLGEKVTMSCRASSSVNYMYWYQQKSDASPKLWIYYTSNLAPGVPARFSGSGSGNSYSLTISSMEGEDAATYYCQQFTSSPYTFGGGTKLEIKR
notes: as for B3
